Laboratory results taken from a protein production outcome set (Wang et al. 2014).

assay: label from the status in PepcDB records
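Further: failed if final PepcDB status was selected cloned or expressed and not failed if soluble or beyond.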

Q: With “GDIGGIAQITSSLFLGRGSVASNRHLLQARGITCIVNATIEIPNFNWPQFEYVKVPLADMPHAPIGLYFDTVADKIHSVSRKHGATLVHCAAGVSRSATLCIAYLMKFHNVCLLEAYNWVKARRPVIRPNVGFWRQLIDYERQLFGKSTVKMVQTPYGIVPDVYEKESRHLMPYWG” as the sequence, how does the protein production read?
A: Its protein production is “failed”.

Q: Which protein production does the source give for “GERCEPIELLSINLPEESSSRIIDIVTRRKGEMVMMENKNDRVFMEFHIPSRGIIGLNNAVLTASAGEAVIAHRFLEFQPWKGEIERRSNGSIIALESGTAYAYALNNLQSRGRFFISPQEEVYAG” here?
A: The protein production was “failed”.

Q: With “GFSHRSQQLLEQSVAKQLPLLERKYHQKNLEAAMVVTDIASGEIRALVGGRESGYAGFNRALNAKRHIGSLIKPAIYVAALERYQQYNFATILDDKAITLRNGTGKKWQPKNYDGKYRGQVSLIEGLVFSLNVPTINLGMSLGLDSVADAIKALGYQQKLKMRPSVLLGAVNMSPLEINQLYLAIANNGYYQKTHTITKILSSNNETLWQKQQSSEQRLSSNAAYLLDYALERVTQVGTARSLTWRLNNKKVAGKTGTSNALRDSWFIGYDSKHLITTWLGKDNNKPTGLTGSSGALPLFADFINKQGVINKVEAK” as the sequence, how does the protein production read?
A: The protein production was “failed”.

Q: Which protein production does the source give for “GGEVHAAWHLRYAGRDFFVKCDERELLPGFTAEADQLELLSRSKTVTVPKVWAVGADRDYSFLVMDYLPPRPLDAHSAFILGQQIARLHQWSDQPQFGLDFDNALSTTPQPNTWQRRWSTFFAEQRIGWQLELAAEKGIAFGNIDAIVEHIQQRLASHQPQPSLLHGDLWSGNCALGPDGPYIFDPACYWGDRECDLAMLPLHTEQ” here?
A: The protein production was “failed”.

Q: Which protein production does the source give for “GKIEEVVLGATKADGGTREYTVTLGGERSLAFYTFDAPQPHLPAIAIDVFDRRPMLAKAVRMHYEDVLDNPAEWARKCVKKFGADLVTLHLISTDPLLDDTPASEAVKVLEDVLQAVKCPIIVGGSGNKEKDPEVLEKAAEVAEGERIMLASATLDMDWERIANAAKKYGHVVLSWTQMDINNQKTLNRYLLKRVEMPRDSIVMDPTTAALGYGLDYAFTNMERIRISGLKGDTDLNFPISSGTTNAWGAREAWMVDSPIEEDTPWGPRELRGPIWEIITGLTLSLAGVDLFMMMHPVAVAVLKEVFNTLGGKVSGGVADPGEWIFME” here?
A: The protein production was “failed”.

Q: Which protein production does the source give for “GKPKTDTDFQTYNGDGFKLQIPSKWNPNKEVEYPGQVLRFEDNFDATSNVIVAITPTDKKSITDFGSPEQFLSQVDYLLGRQAYSGKTDSEGGFESDAVAIANVLETSTAEVGGKQYYYLSILTRTADGNEGGKHQLVTATVNDGKLYICKAQAGDKRWFKGAKKFVENTATSFSLA” here?
A: Its protein production is “not failed”.

Q: Which protein production does the source give for “GLDTGALDQQQNNNGRESIRTVNVSVNNAVTKIVSNMSPAVVGVVNIQKSDIWGESGEAGSGSGVIYKKNDHSAYVVTNHHVIEGASQIEISLKDGSRVSADLVGSDQLMDLAVLRVKSDKIKAVADFGNSDKVKSGEPVIAIGNPLGLEFAGSVTQGVISGTERAIPVDSNGDGQPDWNAEVLQTDAAINPGNSGGALLNMDGKVIGINSMKIAESAVEGIGLSIPSKLVIPVIEDLERYGKVKRPFLGIEMKSLSDIASYHWDETLKLPKNVTNGAVVMGVDAFSPAGKAGLKELDVITEFDGYKVNDIVDLRKRLYQKKVGDRVKVKFYRGGKEKSVDIKLSSA” here?
A: Its protein production is “failed”.

Q: For “GLEVTVWNRSAAACEPLVALGAARAEEVGELFGLDVVISMLADDQAIRGVLLDSGALERARPGLIHLSMSTLSLDCVEALDQAHQRQGLAFVAAPVFGRTDVAEAGKLNIVVGGPEEAIEQVKALLEIMGQKTWFFGKDPRGAMAVKISGNFMIASAIESMGESVALVKRLGVEPGRFMELMSSTLFDAPVYRNYGPQIVEQRFTPARFRLVLGLKDVDLALSAGKRHNVPLPLASLLHDVLLEAIAHGDGESDWTALAKVALSRSGQI”, which protein production is on record?
A: The protein production was “failed”.

Q: Which protein production does the source give for “GLNHMTARYLREEHHMFRAAFRKFLEKEAYPHYNDWEKRGIIPRSFWAKMGENGFLCPWVDEKYGGLNADFAYSVVINEELEKVGSSLVGIGLHNDIVTPYIASYGTEEQKQKWLPKCVTGELITAIAMTEPGAGSDLANISTTAVKDGDYYIVNGQKTFITNGIHADLIVVACKTDPQAKPPHRGISLLVVERDTPGFTRGRKLEKVGLHAQDTAELFFQDAKVPAYNLLGEEGKGFYYLMEKLQQERLVVAIAAQTAAEVMFSLTKQYVKQRTAFGKRVSEFQTVQFRLAEMATEIALGRTFVDRVIEEHMAGKQIVTEVSMAKWWITEMAKRVAAEAMQLHGGYGYMEEYEIARRYRDIPVSAIYAGTNEMMKTIIARQLDL” here?
A: Its protein production is “not failed”.

Q: For “GLTTLIEMIETLSATRTINEVADVVRGAARRILDADGVAFVMRDKDLCWYVDEDAIGPLWKGKRFPMDQCVAGRVMKSGRVVVCPDIYADPDMPHDAYRPTFVKSLAIAPVRPRDPIAAIAVYWARPYDPPPEVLRKLQVVARATASALESGRLNDYLAASLEHGHFLLRELD”, which protein production is on record?
A: Its protein production is “failed”.

Q: With “GMKTSGKQDEAWIMSRLIKQLTDMGFPREPAEEALKSNNMNLDQAMSALLEKKVDVDKRGLGVTDHNGMAAK” as the sequence, how does the protein production read?
A: Its protein production is “not failed”.

Q: For “GMNSGKVAFIVTKNGKRICDVIDECSQRGSTILKAQGGYKQDDIQVVMCACNSKEMYQVRKSVKDTDPDSFIVVVESHEVHGEGFKMTNIGEAEN”, which protein production is on record?
A: Its protein production is “failed”.

Q: For “GPLGSMIVFVRFNSSHGFPVEVDSDTSIFQLKEVVAKRQGVPADQLRVIFAGKELRNDWTVQNCDLDQQSIVHIVQRPWRK”, which protein production is on record?
A: The protein production was “not failed”.

Q: Which protein production does the source give for “GPSRMRHERVVIIKNMFHPMDFEDDPLVLNEIREDLRVECSKFGQIRKLLLFDRHPDGVASVSFRDPEEADYCIQTLDGRWFGGRQITAQAWDGTTDYQ” here?
A: The protein production was “not failed”.

Q: With “GPSSSHTVGPMLAANAFLQLLEQKNLFDKTQRVKVELYGSLALTGKGHGTDKAILNGLENKAPETVDPASMIPRMHEILDSNLLNLAGKKEIPFHEATDFLFLQKELLPKHSNGMRFSAFDGNANLLIEQVYYSIGGGFITTEEDFDK” as the sequence, how does the protein production read?
A: The protein production was “not failed”.

Q: With “GRPDGPVRTKKLKRGRPGRKKKKVLGCPAVAGEEEVDGYETDHQDYCEVCQQGGEIILCDTCPRAYHLVCLDPELDRAPEGKWSCPHCEKEGVQ” as the sequence, how does the protein production read?
A: The protein production was “failed”.

Q: For “GRYEIRFSGAGGQGLILAGVIMAEAASIYDGKQAVQSQSYGPEARGGASKSEVIISDGPVDYPKATQCDALLALTQEACDKYSADLKEGGVLLVDSDLVTKLPPGNYQTTAFNIINTAKNDVGREIVANIVALGAMVALTGVVSKEAAEKAVLSRVPEAFVELNRKAFQMGFEKALAAKK”, which protein production is on record?
A: The protein production was “not failed”.

Q: Which protein production does the source give for “GSAASSALKGLIQQFTTITGASESVGKHMLEACNNNLEMAVTMFLDGGG” here?
A: The protein production was “not failed”.

Q: With “GSAHSDEQSSGTLSSPGQSDILLTAAQGTVRKAGALAVKNFLVHKKNKKVESATRRKWKHYWVSLKGCTLFFYESDGRSGIDHNSIPKHAVWVENSIVQAVPEHPKKDFVFCLSNSLGDAFLFQTTSQTELENWITAIHSACATAVAR” as the sequence, how does the protein production read?
A: The protein production was “failed”.

Q: Which protein production does the source give for “GSALIDEIRSLGESLQGYNVRHINSTIIGGGVAEILSSLVPLMEDVGLTVNWEVLAGTTEFFHTTKLFHNGMHGQPVNITGEMLENYLAIAQKNQNLLDGDADLVVIHDQQPLGLTAFRGRTRGRWLWYCHVDPRYAVPEVWYFLAPMVATCDAAVFHLP” here?
A: Its protein production is “failed”.

Q: With “GSAQPRHDAQRPALAPRSDGFDIHTYHPDFVADPYPLLRLIRSRAPVCRDQASIWWISRYADVSACLRDRRFSADPARLGAAGVRQGGASWFGHQQLQPLARFYDNFMLFNDAPRHTRLRRLFAPAFGPDAVRRWEARIEVLVEELLDSLLERREPDLLRDFAEPLTIRVAAELFGFPREDTGQLLPWGRDLAAGLDLAASHGDAGQINRSAVAFSDYLQRQARGWSDGSSRPPSGAAPSILDGAAMLEAGLGLEDLVAAYAMVFMAAFETTISMVGNATLALLTHPDQLDLLRRCPELAANAVEELLRFDGAVRGGVRCTLEEVEIGGQRIPPGEKVWLSFLAANRDPEMFAAPDRLQLQRANAKQHVAFAHGPHYCLGAYLARLELQCALRGLVRRRFALASEPTDLRWRRSSVFRTLERLPIVP” as the sequence, how does the protein production read?
A: The protein production was “failed”.

Q: With “GSGLDVKNLVDAIVTAEITPSQVRHDKQLNSVNTELSALGQLKSYLTNLQTSLAKLSSLSQFYTMKSTISDPNYFSATLGTGATKNTYQIEIQKLAQQHS” as the sequence, how does the protein production read?
A: Its protein production is “failed”.

Q: Which protein production does the source give for “GSHMKEDQVVAEEPGFQDEEESLFQDIDLLQKHGINVADIKKLKSVGICTIKGIQMTTRRALCNVKGLSEAKVDKIKEAANKLIEPGFLTAFEYSEKRKMVFHITTGSQEFDKLLGGGIESMAITEAFGEFRTGKTQLSHTLCVTAQLPGAGGYPGGKIIFIDTENTFRPDRLRDIADRFNVDHDAVLDNVLYARAYTSEHQMELLDYVAAKFHEEAGIFKLLIIDSIMALFRVDFSGRGELAERQQKLAQMLSRLQKISEEYNVAVFVTNQMTADPGATMTFQADPKKPIGGHILAHASTTRISLRKGRGELRIAKIYDSPEMPENEATFAITAGGIGDAKE” here?
A: The protein production was “not failed”.

Q: For “GSSGSSGMCGRFAQSQTREDYLALLAEDIERDIPYDPEPIGRYNVAPGTKVLLLSERDEHLHLDPVFWGYAPGWWDKPPLINARVETAATSRMFKPLWQHGRAICFADGWFEWKKEGDKKQPFFIYRADGQPIFMAAIGSTPFERGDEAEGFLIVTAAADQGLVDIHDRRPLVLSPEAAREWMRQEISGKEASEIAASGCVPANQFSWHPVSRAVGNVKNQGAELIQPV”, which protein production is on record?
A: The protein production was “not failed”.

Q: Which protein production does the source give for “GSSGSSGMSSMTQNLREVMKVMFKVPGFDRVLEKVTLVSAAPEKLICEMKVEEQHTNKLGTLHGGLTATLVDSISTMALMCTERGAPGVSVDMNITYMSPAKIGEEIVITAHILKQGKTLAFASVDLTNKTTGKLIAQGRHTKHLGNSGPSSG” here?
A: The protein production was “not failed”.

Q: Which protein production does the source give for “GSSGSSGPTMEGPLRRKTLLKEGRKPALSSWTRYWVVLSGATLLYYGAKSLRGTDRKHYKSTPGKKVSIVGWMVQLPDDPEHPDIFQLNNPDKGNVYKFQTGSRFHAILWHKHLDDACKSSRPQVPANLMSFE” here?
A: Its protein production is “not failed”.

Q: Which protein production does the source give for “GSSGSSGSTVVMADVSQYHVNHLVTFCLGEEDGVHTVEDASRKLAVMDSQGRVWAQEMLLRVSPSQVTLLDPVSKEELESYPLDAIVRCDAVMPRGRSRSLLLLVCQEPERAQPDVHFFQGLLLGAELIREDIQGALQNYRSGRGERSGPSSG” here?
A: Its protein production is “not failed”.

Q: Which protein production does the source give for “GTVLVSIKSSLPENNFFDDALIDELLQQFASFGEVILIRFVEDKMWVTFLEGSSALNVLSLNGKELLNRTITIALKSP” here?
A: Its protein production is “not failed”.

Q: Which protein production does the source give for “GYDHKGMGITARGAWESVKRHFRALGRDCQNEDFRCIGVGDMSGDVFGNGMLLSRHSLLVAAFDHRHIFLDPMPDAALSFAERERLFKLPRSSWADYDATLISKGGGIYPRTLKSIQISPQVAEVLGLDKGIKQLSPNVLISAILKAPVDLFWNGGIGTYVKASSETHADVGDRANNALRVNGLELRCKVVGEGGNLGLTQLGRIEAAQRGVLLNTDFIDNSAGVDTSDHEVNIKILLNDVVQAKTLCFDARNALLASMTDDVAQLVLWDNIRQNQALSLMERMSVKRLGSKQHFIRTLERQGLLDRQIEFLPSDAELSARKARGLGL” here?
A: Its protein production is “failed”.

Q: With “GYTPQQLDSMVRKQDWMFLLSDRVKRSAMSLNEREKSEKYVFSFPFTKSPKDAVSGGIIKGQNLANLFTELTVGYHDSVDFNKLPIPFACVSQNIVNGEQIVFHNGILATAMRASMAIPGVFTPVRKDSMILIDGGMINNYPVDVARSMGADIIIGVDVQNNLKGID” as the sequence, how does the protein production read?
A: Its protein production is “failed”.

Q: For “HDLALSGNAYKVRLFLSLIGREATLRPVDFLNREHKTQAFLRMNPRGQIPVLEDGELQLGDSHAILVYLARRHADPVWYPLDPVSQGRIAYWLSYSANEVQNGPASARLITRFNLPLDREQTHQRGLEVLRLVDRHLAEHRWLAQGEQPSIADVALYPYLALAPEGGLALDHYPALNAWIARIRALPGYIPMPGL”, which protein production is on record?
A: The protein production was “not failed”.

Q: Which protein production does the source give for “HKEFAVTMRPTEASERCHLRGSYTLRAGESALELWGGPEPGTQLYDWPYRFLRRFGRDKVTFSFEAGRRCVSGEGNFEFETRQGNEIFLALEEAISAQKN” here?
A: Its protein production is “not failed”.
